Test results: patent US20200155602A1 (IMMATICS BIOTECHNOLOGIES, published 2020)

Biological target: T1, HLA-A*02:01 (human)
T1 construct: Peptide-receptive HLA-A*02:01 monomer obtained by UV cleavage of a UV-sensitive ligand; captured on streptavidin plates; also called peptide-receptive MHC molecules; MHC class I
Test: UV-ligand exchange, anti-b2m ELISA; grade of peptide exchange yield (>10% = +; >20% = ++; >50 = +++; >75% = ++++)
Source text: Candidate peptides for T cell based therapies according to the present invention were further tested for their MHC binding capacity (affinity). The individual peptide-MHC complexes were produced by UV-ligand exchange, where a UV-sensitive peptide is cleaved upon UV-irradiation, and exchanged with the peptide of interest as analyzed. Only peptide candidates that can effectively bind and stabilize the peptide-receptive MHC molecules prevent dissociation of the MHC complexes. To determine the yield of the exchange reaction, an ELISA was performed based on the detection of the light chain (β2m) of stabilized MHC complexes. The assay was performed as generally described in Rodenko et al. (Rodenko et al., 2006).
96 well MAXISorp plates (NUNC) were coated over night with 2 ug/ml streptavidin in PBS at room temperature, washed 4× and blocked for 1 h at 37° C. in 2% BSA containing blocking buffer. Refolded HLA-A*02:01/MLA-001 monomers served as standards, covering the range of 15-500 ng/ml. Peptide-MHC monomers of the UV-exchange reaction were diluted 100-fold in blocking buffer. Samples were incubated for 1 h at 37° C., washed four times, incubated with 2 ug/ml HRP conjugated anti-β2m for 1 h at 37° C., washed again and detected with TMB solution that is stopped with […]. Absorption was measured at 450 nm. […]

With SLTSFLISL the peptide exchange yield was 50 to 75%.
